Measured values published in article PMC4356359, “The structure of bradyzoite-specific enolase from Toxoplasma gondii reveals insights into its dual cytoplasmic and nuclear functions”.

Target: T1, TgENO1 (bradyzoite enolase 1) (Toxoplasma gondii, UniProt B9PH47 1-444)
T1 sequence: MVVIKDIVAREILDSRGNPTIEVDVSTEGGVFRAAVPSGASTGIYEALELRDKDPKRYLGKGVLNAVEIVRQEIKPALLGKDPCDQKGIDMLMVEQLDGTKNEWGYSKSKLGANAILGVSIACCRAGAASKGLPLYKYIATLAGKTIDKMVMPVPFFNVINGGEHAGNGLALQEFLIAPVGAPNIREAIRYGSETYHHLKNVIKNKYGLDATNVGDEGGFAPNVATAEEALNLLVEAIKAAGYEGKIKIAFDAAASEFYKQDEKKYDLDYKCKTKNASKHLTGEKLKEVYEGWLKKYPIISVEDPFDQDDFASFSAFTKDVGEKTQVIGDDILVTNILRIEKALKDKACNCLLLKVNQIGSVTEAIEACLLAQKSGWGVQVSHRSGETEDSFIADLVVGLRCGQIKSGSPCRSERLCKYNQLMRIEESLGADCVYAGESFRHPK
Experiment: EMSA; EMSA with Thermo Scientific band-shift kit per manufacturer; buffer, salt, pH and temperature not stated (protein stock 10 mM Tris-HCl pH 8.3, 500 mM NaCl, 5 mM beta-mercaptoethanol)
Conditions: protein: recombinant; tags: N-terminal His-TEV (pCCK-N'-HisTEV vector)

Binder | binding result
TgMAG1 probe (TTTTCT motif) (dsDNA) DNA 1: TTTTCTTCTCAAGA DNA 2: TCTTGAGAAGAAAA | binds
probe C (random negative control) (dsDNA) DNA 1: TTCTCCTGTGTCAT DNA 2: ATGACACAGGAGAA | no binding
probe B (c-Myc promoter TATA box) (dsDNA) DNA 1: ATATAAAATCCGTA DNA 2: TACGGATTTTATAT | no binding
